Tests used:
[1] = molecular target: T1, ScECM4 (Saccharomyces cerevisiae, UniProt P36156); test: absorbance loss at […] nm; HPLC of menadione at […] nm; format: biochemical; details: GSH 0.05 to 1 mM (spectrophotometry) or 2 mM (HPLC) required; 30 mM Tris-HCl pH 8.0, 1 mM EDTA; room temperature (HPLC)
T1 construct: gene ECM4; full-length, C-terminal His-tag kept (pET-26b NdeI/XhoI), expressed in E. coli Rosetta2 (DE3) pLysS; dimer
T1 sequence (P36156 1-370): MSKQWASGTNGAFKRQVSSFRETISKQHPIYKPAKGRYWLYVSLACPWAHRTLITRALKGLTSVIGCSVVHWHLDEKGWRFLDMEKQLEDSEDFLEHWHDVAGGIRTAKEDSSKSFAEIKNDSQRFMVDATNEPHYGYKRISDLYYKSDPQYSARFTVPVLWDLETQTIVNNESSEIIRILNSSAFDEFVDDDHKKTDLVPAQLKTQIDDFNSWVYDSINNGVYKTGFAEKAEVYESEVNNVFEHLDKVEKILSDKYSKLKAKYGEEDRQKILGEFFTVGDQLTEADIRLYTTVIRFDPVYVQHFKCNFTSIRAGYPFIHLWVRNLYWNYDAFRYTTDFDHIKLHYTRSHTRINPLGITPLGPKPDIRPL

[2] = molecular target: the molecule itself; test: crystal structure; microbatch under paraffin oil at 278 K, 20% PEG 2000 MME, 0.1 M Tris-HCl pH 7.0; space group P2(1), two monomers in the asymmetric unit; apo crystals and crystals soaked with 5 mM GS-menadione

Q: `CC1=C(SC[C@H](NC(=O)CC[C@H](N)C(=O)O)C(=O)NCC(=O)O)C(=O)c2ccccc2C1=O` [GS-menadione] was tested. Which “absorbance loss at 430 nm; HPLC of menadione at 250 nm” value [1] did it give?
A: ScECM4 activity measurements stated for reduction of GS-menadione to menadione in presence of glutathione

B1: ScECM4 (ECM4 from Saccharomyces cerevisiae, glutathionyl-hydroquinone reductase, Xi-class glutathione transferase) (enzyme, UniProt P36156 1-370, looked up)
chain: MSKQWASGTNGAFKRQVSSFRETISKQHPIYKPAKGRYWLYVSLACPWAHRTLITRALKGLTSVIGCSVVHWHLDEKGWRFLDMEKQLEDSEDFLEHWHDVAGGIRTAKEDSSKSFAEIKNDSQRFMVDATNEPHYGYKRISDLYYKSDPQYSARFTVPVLWDLETQTIVNNESSEIIRILNSSAFDEFVDDDHKKTDLVPAQLKTQIDDFNSWVYDSINNGVYKTGFAEKAEVYESEVNNVFEHLDKVEKILSDKYSKLKAKYGEEDRQKILGEFFTVGDQLTEADIRLYTTVIRFDPVYVQHFKCNFTSIRAGYPFIHLWVRNLYWNYDAFRYTTDFDHIKLHYTRSHTRINPLGITPLGPKPDIRPL
notes: ECM4 (Gto2), Saccharomyces cerevisiae, YKR076W; Homodimer in the crystal; The printed end of the C-terminal domain (E372) probably counts residues added by the XhoI site and vector before the His tag (surmised); also called Gto2; GHR ScECM4; source: E. coli Rosetta2 (DE3) pLysS, purified (Ni-NTA, gel filtration on Superdex 200); not shown: His6, C-terminal, kept
Q: B1 was tested. Which “stoichiometry N” value [2] did it give?
A: 2

B2: glutathionylated ScECM4 (ScECM4-SG) (enzyme, Saccharomyces cerevisiae, UniProt P36156 1-370, looked up)
chain: MSKQWASGTNGAFKRQVSSFRETISKQHPIYKPAKGRYWLYVSLACPWAHRTLITRALKGLTSVIGCSVVHWHLDEKGWRFLDMEKQLEDSEDFLEHWHDVAGGIRTAKEDSSKSFAEIKNDSQRFMVDATNEPHYGYKRISDLYYKSDPQYSARFTVPVLWDLETQTIVNNESSEIIRILNSSAFDEFVDDDHKKTDLVPAQLKTQIDDFNSWVYDSINNGVYKTGFAEKAEVYESEVNNVFEHLDKVEKILSDKYSKLKAKYGEEDRQKILGEFFTVGDQLTEADIRLYTTVIRFDPVYVQHFKCNFTSIRAGYPFIHLWVRNLYWNYDAFRYTTDFDHIKLHYTRSHTRINPLGITPLGPKPDIRPL
modifications: glutathione covalently bound to C46 (mixed disulfide bond)
notes: ECM4 (Gto2), Saccharomyces cerevisiae, YKR076W; same construct as m1, glutathionylated at C46 after soaking or co-crystallisation with GS-menadione; Same construct as m1, with glutathione on C46; Homodimer in the crystal; source: E. coli Rosetta2 (DE3) pLysS, purified (Ni-NTA, gel filtration); crystals soaked with 5 mM GS-menadione; not shown: His6, C-terminal, kept
Q: How did the “stoichiometry N” value [2] turn out when B2 was run?
A: 2

— article PMC5063366, “Crystal Structure of Saccharomyces cerevisiae ECM4, a Xi-Class Glutathione Transferase that Reacts with Glutathionyl-(hydro)quinones” (PLoS ONE, 2016)
